Data published in patent publication US5965697, “Disaggregated mutant human RANTES” (British Biotech Pharmaceuticals Limited, dated 1999).
Values joined by “and” are separate entries in the source; they are usually repeats but may differ in a detail not shown here. Equal entries are not always repeated.

Tests used:
[1] = target: wild-type human RANTES (hRANTES) (human); test: sedimentation equilibrium AUC in PBS, 0.1 mg/ml; self-association (monomer 7850 Da)
[2] = target: T-cell receptor complex (tyrosine kinase pathway) on CD3+ Jurkat cells and cultured human T lymphocytes (human); settings: scale: % of cells expressing the cell surface marker
[3] = target: cell-surface proteoglycans; test: radioligand binding, 0.125 nM 125I-hRANTES on CHO cells, filter harvest
[4] = target: cell-surface proteoglycans; test: radioligand binding, 0.2 nM 125I-hRANTES E66>S on CHO cells, filter harvest
[5] = target: T-cell receptor complex (tyrosine kinase pathway) on CD3+ Jurkat cells and cultured human T lymphocytes (human)
[6] = target: the molecule itself; test: sedimentation equilibrium AUC in PBS, 0.5 mg/ml; self-association
Procedure: Mutagenesis of pERM1 was performed according to the method of Kunkel et al., (Methods in Enzymology, 154: 367–382; 1987). The oligonucleotides BB-35875 (SEQ ID NO. 14; 5'-[…] […] GTGG-3') and BB-37015 (SEQ ID No. 15; 5'-[…] ACATTGA-CAA […]-3') were used to construct the hRANTES Glu26>Ala and Glu66>Ser variant genes respectively. A combination of both BB-35875 and BB-37015 was used to […]. The samples were spun at 15,000 r.p.m., 25° C. for 18 hours to reach equilibrium. Final solute distributions were recorded at 235 nm, 280 nm and 295 nm as a function of radius. The scan was repeated after a further three hours of centrifugation to confirm that equilibrium had been achieved. The final solute distribution ASCII data were captured and the Microcal Origin software for the Beckman XLA analytical ultracentrifuge was used to fit the data to a model assuming a single ideal species (Ideal1) to provide an estimate of the weight average molecular weight.

[7] = target: G-protein coupled receptors (GPCRs) through which hRANTES acts

Molecule	% of cells expressing the cell surface marker (CD69, CD11b, CD11c) on cultured human T lymphocytes, 5 µM [2]	Average molecular weight by AUC (Da) [6]	other results
wild-type human RANTES (hRANTES) (ligand)	–	–	Average molecular weight by AUC (Da) [1]: > 160000 Da
wild-type human RANTES (hRANTES) (ligand) SPYSSDTTPCCFAYIARPLPRAHIKEYFYTSGKCSNPAVVFVTRKNRQVCANPEKKWVREYINSLEMS	99.1	–	total counts bound [3]: 5730 cpm
hRANTES E66>S (ligand) SPYSSDTTPCCFAYIARPLPRAHIKEYFYTSGKCSNPAVVFVTRKNRQVCANPEKKWVREYINSLSMS	0.39	14000 Da	total counts bound [4]: 18300 cpm; calcium mobilisation in CD3+ Jurkat cells [5]: 200 fold
hRANTES E26>A (ligand) SPYSSDTTPCCFAYIARPLPRAHIKAYFYTSGKCSNPAVVFVTRKNRQVCANPEKKWVREYINSLEMS	–	33000 Da	IC50 of p24 antigen production by PBMC infected with HIV-1 RR [7]: 28 nM and 0.22 µg/ml
hRANTES E26>A E66>S (ligand) SPYSSDTTPCCFAYIARPLPRAHIKAYFYTSGKCSNPAVVFVTRKNRQVCANPEKKWVREYINSLSMS	–	15000 Da	–
